Results published in patent US20240116985A1, “STAPLED PEPTIDES AND METHODS THEREOF” (priority 2020, published 2024).
Values joined by “and” are separate entries in the source; they are usually repeats but may differ in a detail not shown here. Equal values may be shown once. Starred links: 1 amine or outer side, 2 acyl side, 3 side chain; linkers in the order of their positions; H or OH if unused. Positions of bridges follow the written chain, without caps; N, C: chain ends. Non-standard residues stand in square brackets, D forms with d. PyrS2 = (S)-3-amino-1-((pent-4-en-1-yloxy)carbonyl)pyrrolidine-3-carboxylic acid, C=CCCCOC(=O)N1CC[C@@](N[*:1])(C(=O)[*:2])C1; B5 = 2-amino-2-(pent-4-en-1-yl)hept-6-enoic acid, C=CCCCC(CCCC=C)(N[*:1])C(=O)[*:2]; Bta = N[C@@H](Cc1csc2ccccc12)C(=O)O; αAllylPro = C=CC[C@@]1(C(=O)O)CCCN1; tBuAla = CC(C)(C)C[C@H](N)C(=O)O; 3Thi = N[C@@H](Cc1ccsc1)C(=O)O

What was measured:
[1] = molecular target: B-cat-Halo (beta-catenin HaloTag NanoBRET construct expressed in HEK293 cells) (UniProt P35222); experiment: NanoBRET in HEK293 cells, Bcat-Halo + TCF4-Luc, peptide at 10 uM
B-cat-Halo (beta-catenin HaloTag NanoBRET construct expressed in HEK293 cells), sequence (P35222 whole entry): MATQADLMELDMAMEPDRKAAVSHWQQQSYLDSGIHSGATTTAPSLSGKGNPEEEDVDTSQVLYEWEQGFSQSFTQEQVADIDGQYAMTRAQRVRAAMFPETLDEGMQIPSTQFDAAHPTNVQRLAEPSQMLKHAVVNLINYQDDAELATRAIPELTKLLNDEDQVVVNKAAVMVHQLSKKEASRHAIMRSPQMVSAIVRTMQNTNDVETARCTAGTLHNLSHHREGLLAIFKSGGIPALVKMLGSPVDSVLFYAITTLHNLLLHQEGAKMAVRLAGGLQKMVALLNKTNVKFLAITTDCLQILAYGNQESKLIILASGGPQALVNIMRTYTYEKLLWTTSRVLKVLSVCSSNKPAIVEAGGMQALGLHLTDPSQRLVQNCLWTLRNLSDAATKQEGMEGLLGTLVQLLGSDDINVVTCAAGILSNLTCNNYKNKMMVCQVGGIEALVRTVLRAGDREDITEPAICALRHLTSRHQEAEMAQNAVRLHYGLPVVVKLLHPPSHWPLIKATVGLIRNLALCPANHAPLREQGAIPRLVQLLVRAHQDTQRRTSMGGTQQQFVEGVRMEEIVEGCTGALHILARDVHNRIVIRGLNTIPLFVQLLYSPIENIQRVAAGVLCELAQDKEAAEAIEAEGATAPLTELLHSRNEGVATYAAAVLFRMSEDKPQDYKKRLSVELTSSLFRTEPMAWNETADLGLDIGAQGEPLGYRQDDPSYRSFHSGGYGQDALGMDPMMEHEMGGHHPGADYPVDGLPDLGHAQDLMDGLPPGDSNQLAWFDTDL

[2] = molecular target: beta-catenin-Halo NanoBRET construct (Homo sapiens (Human)) (UniProt P35222); experiment: NanoBRET, Bcat-Halo/TCF4-Luc in HEK293 cells; peptide 5 uM; replicate 1; competitor TCF4-Luc
beta-catenin-Halo NanoBRET construct (Homo sapiens (Human)), sequence (P35222 whole entry): as above

[3] = molecular target: beta-catenin-Halo NanoBRET construct (Homo sapiens (Human)) (UniProt P35222); experiment: NanoBRET, Bcat-Halo/TCF4-Luc in HEK293 cells; peptide 5 uM; replicate 3; competitor TCF4-Luc
[4] = molecular target: beta-catenin-Halo NanoBRET construct (Homo sapiens (Human)) (UniProt P35222); experiment: NanoBRET, Bcat-Halo/TCF4-Luc in HEK293 cells; peptide 10 uM; replicate 2; competitor TCF4-Luc
[5] = molecular target: beta-catenin-Halo NanoBRET construct (Homo sapiens (Human)) (UniProt P35222); experiment: NanoBRET, Bcat-Halo/TCF4-Luc in HEK293 cells; peptide 10 uM; replicate 3; competitor TCF4-Luc
[6] = molecular target: beta-catenin-Halo NanoBRET construct (Homo sapiens (Human)) (UniProt P35222); experiment: NanoBRET, Bcat-Halo/TCF4-Luc in HEK293 cells; peptide 20 uM; replicate 3; competitor TCF4-Luc
[7] = molecular target: beta-catenin-Halo NanoBRET construct (Homo sapiens (Human)) (UniProt P35222); experiment: NanoBRET, Bcat-Halo/TCF4-Luc in HEK293 cells; peptide 2.5 uM; replicate 2; competitor TCF4-Luc
[8] = molecular target: beta-catenin-Halo NanoBRET construct (Homo sapiens (Human)) (UniProt P35222); experiment: NanoBRET, Bcat-Halo/TCF4-Luc in HEK293 cells; peptide 1.25 uM; replicate 2; competitor TCF4-Luc
[9] = molecular target: beta-catenin-Halo NanoBRET construct (Homo sapiens (Human)) (UniProt P35222); experiment: NanoBRET, Bcat-Halo/TCF4-Luc in HEK293 cells; peptide 1.25 uM; replicate 3; competitor TCF4-Luc
[10] = molecular target: beta-catenin-Halo NanoBRET construct (Homo sapiens (Human)) (UniProt P35222); experiment: NanoBRET, Bcat-Halo/TCF4-Luc in HEK293 cells; peptide 0.625 uM; replicate 1; competitor TCF4-Luc
[11] = molecular target: beta-catenin-Halo NanoBRET construct (Homo sapiens (Human)) (UniProt P35222); experiment: NanoBRET, Bcat-Halo/TCF4-Luc in HEK293 cells; peptide 0.625 uM; replicate 2; competitor TCF4-Luc
[12] = molecular target: beta-catenin-Halo NanoBRET construct (Homo sapiens (Human)) (UniProt P35222); experiment: NanoBRET, Bcat-Halo/TCF4-Luc in HEK293 cells; peptide 0.625 uM; replicate 3; competitor TCF4-Luc
[13] = molecular target: beta-catenin-Halo (NanoBRET construct expressed in HEK293 cells) (Homo sapiens (Human)) (UniProt P35222); experiment: NanoBRET, HEK293 cells with Bcat-Halo and TCF4-Luc; plate row B (20 uM by plate map), plate column 6
beta-catenin-Halo (NanoBRET construct expressed in HEK293 cells) (Homo sapiens (Human)), sequence (P35222 whole entry): as above

[14] = molecular target: beta-catenin-Halo (NanoBRET construct expressed in HEK293 cells) (Homo sapiens (Human)) (UniProt P35222); experiment: NanoBRET, HEK293 cells with Bcat-Halo and TCF4-Luc; plate row B (20 uM by plate map), plate column 7
[15] = molecular target: beta-catenin-Halo (NanoBRET construct expressed in HEK293 cells) (Homo sapiens (Human)) (UniProt P35222); experiment: NanoBRET, HEK293 cells with Bcat-Halo and TCF4-Luc; plate row C (10 uM by plate map), plate column 6
[16] = molecular target: beta-catenin-Halo (NanoBRET construct expressed in HEK293 cells) (Homo sapiens (Human)) (UniProt P35222); experiment: NanoBRET, HEK293 cells with Bcat-Halo and TCF4-Luc; plate row C (10 uM by plate map), plate column 7
[17] = molecular target: beta-catenin-Halo (NanoBRET construct expressed in HEK293 cells) (Homo sapiens (Human)) (UniProt P35222); experiment: NanoBRET, HEK293 cells with Bcat-Halo and TCF4-Luc; plate row E (2.5 uM by plate map), plate column 6
[18] = molecular target: beta-catenin-Halo (NanoBRET construct expressed in HEK293 cells) (Homo sapiens (Human)) (UniProt P35222); experiment: NanoBRET, HEK293 cells with Bcat-Halo and TCF4-Luc; plate row E (2.5 uM by plate map), plate column 7
[19] = molecular target: beta-catenin-Halo (NanoBRET construct expressed in HEK293 cells) (Homo sapiens (Human)) (UniProt P35222); experiment: NanoBRET, HEK293 cells with Bcat-Halo and TCF4-Luc; plate row F (1.25 uM by plate map), plate column 5
[20] = molecular target: beta-catenin-Halo (NanoBRET construct expressed in HEK293 cells) (Homo sapiens (Human)) (UniProt P35222); experiment: NanoBRET, HEK293 cells with Bcat-Halo and TCF4-Luc; plate row F (1.25 uM by plate map), plate column 6
[21] = molecular target: beta-catenin-Halo (NanoBRET construct expressed in HEK293 cells) (Homo sapiens (Human)) (UniProt P35222); experiment: NanoBRET, HEK293 cells with Bcat-Halo and TCF4-Luc; plate row G (0.625 uM by plate map), plate column 5
[22] = molecular target: beta-catenin-Halo NanoBRET construct (Homo sapiens (Human)) (UniProt P35222); experiment: NanoBRET raw acceptor reading, Bcat-Halo/TCF4-Luc in HEK293 cells; plate row E (2.5 uM by plate map); competitor TCF4-Luc
[23] = molecular target: beta-catenin-Halo NanoBRET construct (Homo sapiens (Human)) (UniProt P35222); experiment: NanoBRET raw acceptor reading, Bcat-Halo/TCF4-Luc in HEK293 cells; plate row F (1.25 uM by plate map); competitor TCF4-Luc
[24] = molecular target: beta-catenin-Halo NanoBRET construct (Homo sapiens (Human)) (UniProt P35222); experiment: NanoBRET raw acceptor reading, Bcat-Halo/TCF4-Luc in HEK293 cells; plate row G (0.625 uM by plate map); competitor TCF4-Luc
[25] = molecular target: full-length beta-Catenin (Uniprot ID P35222) (Homo sapiens (Human)) (UniProt P35222); experiment: fluorescence polarization competition: peptide titrated against 10 nM full-length beta-catenin + 10 nM 5FAM-TCF4(10-53) probe
full-length beta-Catenin (Uniprot ID P35222) (Homo sapiens (Human)), sequence (P35222 2-781 limits assumed): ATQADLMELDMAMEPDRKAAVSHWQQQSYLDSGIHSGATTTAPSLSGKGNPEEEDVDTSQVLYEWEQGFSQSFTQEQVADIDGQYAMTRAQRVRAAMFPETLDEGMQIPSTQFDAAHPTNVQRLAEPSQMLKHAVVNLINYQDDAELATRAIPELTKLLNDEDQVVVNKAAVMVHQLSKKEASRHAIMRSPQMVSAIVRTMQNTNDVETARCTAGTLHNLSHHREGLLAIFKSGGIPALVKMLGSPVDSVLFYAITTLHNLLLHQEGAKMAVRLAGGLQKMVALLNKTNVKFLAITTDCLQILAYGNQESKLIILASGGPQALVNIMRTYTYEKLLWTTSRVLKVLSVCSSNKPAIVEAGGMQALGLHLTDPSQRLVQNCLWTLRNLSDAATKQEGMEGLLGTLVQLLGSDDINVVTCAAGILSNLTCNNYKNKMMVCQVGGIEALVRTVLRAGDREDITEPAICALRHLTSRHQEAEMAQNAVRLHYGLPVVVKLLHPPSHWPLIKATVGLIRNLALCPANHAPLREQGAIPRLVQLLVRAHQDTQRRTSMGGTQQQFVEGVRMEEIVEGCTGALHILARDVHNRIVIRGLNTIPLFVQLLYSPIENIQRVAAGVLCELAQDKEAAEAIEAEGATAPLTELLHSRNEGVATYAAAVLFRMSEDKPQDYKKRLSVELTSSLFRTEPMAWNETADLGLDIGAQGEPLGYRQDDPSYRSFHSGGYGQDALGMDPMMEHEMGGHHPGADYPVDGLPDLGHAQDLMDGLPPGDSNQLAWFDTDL

NanoBRET % inh @ 10 uM [1]: 4.3% | % Inhibition [2]: -16.9% | % Inhibition [3]: -18.6% | % Inhibition [4]: -21.9% | % Inhibition [5]: 1.7% | % Inhibition [6]: -19.5% | % Inhibition [7]: 26.5% | % Inhibition [8]: -1.1% | % Inhibition [9]: -4% | % Inhibition [10]: -56.5% | % Inhibition [11]: -6.9% | % Inhibition [12]: 8.3% | NanoBRET donor emission 450 BP (raw reading) [13]: 55900 | NanoBRET donor emission 450 BP (raw reading) [14]: 48000 | NanoBRET donor emission 450 BP (raw reading) [15]: 25900 | NanoBRET donor emission 450 BP (raw reading) [16]: 40400 | NanoBRET donor emission 450 BP (raw reading) [17]: 22700 | NanoBRET donor emission 450 BP (raw reading) [18]: 40100 | NanoBRET donor emission 450 BP (raw reading) [19]: 21800 | NanoBRET donor emission 450 BP (raw reading) [20]: 34500 | NanoBRET donor emission 450 BP (raw reading) [21]: 25200 | Acceptor 600 LP emission [22]: 460 and 220 and 510 | Acceptor 600 LP emission [23]: 300 and 410 and 860 | Acceptor 600 LP emission [24]: 410 and 440 and 530 | EC50 [25]: 10 µM
Binder: Ac-[αAllylPro]F[tBuAla][B5]DDAADN[PyrS2][3Thi][Bta]Q-NH2 (staple 1-4, 4-11) [I-797]
